The target of the assay is AU1-tagged codon-optimised HPV16 E5 mutant M1 (human papillomavirus type 16) (UniProt P06927). In words: co-IP; HEK-293T transfected, lysed 20-24 h after transfection in CHAPS buffer (0.2 M NaCl, 50 mM HEPES pH 7.5, 2% CHAPS); immunoprecipitation by the tag of E5 (anti-AU1, anti-HA or anti-GFP), protein G-sepharose, blot with anti-calnexin.

B1: calnexin (natural protein)
chain: HDGHDDDVIDIEDDLDDVIEEVEDSKPDTTAPPSSPKVTYKAPVPTGEVYFADSFDRGTLSGWILSKAKKDDTDDEIAKYDGKWEVEEMKESKLPGDKGLVLMSRAKHHAISAKLNKPFLFDTKPLIVQYEVNFQNGIECGGAYVKLLSKTPELNLDQFHDKTPYTIMFGPDKCGEDYKLHFIFRHKNPKTGIYEEKHAKRPDADLKTYFTDKKTHLYTLILNPDNSFEILVDQSVVNSGNLLNDMTPPVNPSREIEDPEDRKPEDWDERPKIPDPEAVKPDDWDEDAPAKIPDEEATKPEGWLDDEPEYVPDPDAEKPEDWDEDMDGEWEAPQIANPRCESAPGCGVWQRPVIDNPNYKGKWKPPMIDNPSYQGIWKPRKIPNPDFFEDLEPFRMTPFSAIGLELWSMTSDIFFDNFIICADRRIVDDWANDGWGLKKAADGAAEPGVVGQMIEAAEERPWLWVVYILTVALPVFLVILFCCSGKKQTSGMEYKKTDAPQPDVKEEEEEKEEEKDKGDEEEEGEEKLEEKQKSDAEEDGGTVSQEEEDRKPKAEEDEILNRSPRNRKPRRE
Consider B1, for which the percent of calnexin co-precipitated, relative to wild type was 50%.

(Values after paper PMC2164959.)
